Test results taken from patent publication US20090202543A1 (ONCOTHERAPY SCIENCE, published 2009).

Target: T1, B7330N-myc (myc-tagged B7330N expressed from pcDNA3.1-B7330N-myc in COS-7 cells) (human, UniProt Q8NCL4 1-622)
T1 construct: Expressed by transfection in COS-7 cells and tested in cell lysates; also called GALNT6; not shown: myc-his tag from the pcDNA3.1-myc-his vector (Invitrogen)
T1 sequence: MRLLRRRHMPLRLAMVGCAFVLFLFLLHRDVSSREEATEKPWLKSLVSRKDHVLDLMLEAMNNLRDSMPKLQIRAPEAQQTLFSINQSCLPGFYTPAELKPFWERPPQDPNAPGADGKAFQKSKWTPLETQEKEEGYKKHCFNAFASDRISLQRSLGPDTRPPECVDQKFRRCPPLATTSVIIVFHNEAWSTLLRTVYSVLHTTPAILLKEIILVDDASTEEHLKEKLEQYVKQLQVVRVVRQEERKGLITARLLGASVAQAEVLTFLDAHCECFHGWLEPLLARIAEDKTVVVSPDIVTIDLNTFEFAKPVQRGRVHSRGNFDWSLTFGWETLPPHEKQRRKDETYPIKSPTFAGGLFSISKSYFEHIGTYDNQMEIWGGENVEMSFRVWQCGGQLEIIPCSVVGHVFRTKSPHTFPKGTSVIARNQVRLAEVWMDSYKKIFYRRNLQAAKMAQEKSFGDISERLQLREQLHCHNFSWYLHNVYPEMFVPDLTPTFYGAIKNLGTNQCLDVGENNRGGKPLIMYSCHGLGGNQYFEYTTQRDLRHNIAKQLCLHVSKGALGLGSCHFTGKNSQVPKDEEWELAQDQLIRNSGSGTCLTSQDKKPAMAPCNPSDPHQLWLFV
Experiment: co-immunoprecipitation from co-transfected COS-7 cells, anti-myc pull-down
From the text: To investigate that hypothesis, we designed two kinds of tagged-B7330N constructs to examine homo-oligomerization. pCAGGS-B7330N-HA and pcDNA3.1-B7330N-myc were co-transfected into COS-7 cells and co-immunoprecipitated using anti-HA or anti-myc antibody, respectively.

binding result: binds
B1: B7330N-HA (HA-tagged B7330N expressed from pCAGGS-B7330N-HA in COS-7 cells) (enzyme)
chain: T1 sequence
modifications: N-glycosylated at Asn-476
notes: Expressed by transfection in COS-7 cells and tested in cell lysates; also called GALNT6; UDP-N-acetyl-alpha-D-galactosamine: polypeptide N-acetylgalactosaminyltransferase 6; not shown: C-terminal HA tag from the pCAGGS-HA vector
